Test results from PMC8210318.

Molecular target: replication protein A (RPA) heterotrimer (UniProt P27694)

B1: N-HelQ, N-terminal HelQ fragment (amino acids 1-240) (domain or fragment)
chain: MDECGSRIRRRVSLPKRNRPSLGCIFGAPTAAELVPGDEGKEEEEMVAENRRRKTAGVLPVEVQPLLLSDSPECLVLGGGDTNPDLLRHMPTDRGVGDQPNDSEVDMFGDYDSFTENSFIAQVDDLEQKYMQLPEHKKHATDFATENLCSESIKNKLSITTIGNLTELQTDKHTENQSGYEGVTIEPGADLLYDVPSSQAIYFENLQNSSNDLGDHSMKERDWKSSSHNTVNEELPHNCI
Q: With B1 as the binder, how does the free, unbound DNA liberated from pre-bound RPA (12.5 nM)–fork-2 DNA complex in EMSAs on incremental addition of N-HelQ (0–500 nM) read?
A: 40%
